In US20250262210A1 (TRUSTEES OF COLUMBIA UNIVERSITY IN THE CITY OF NEW YORK, published 2025):

What was measured:
Experiment in all cases: IP/MS, LZTR1 wild type-FLAG, U87
DIP2B = DIP2B (human, UniProt Q9P265 1-1576)
How it was run: (§1)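 Gel slices were reduced with 5 mM DTT, alkylated with 11 mM IAA and digested overnight at 37° C. with trypsin. Peptides were analysed on an Orbitrap Fusion Tribrid by LC-MS/MS.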

RUSC2 = RUSC2 (human, UniProt Q8N2Y8 1-1516)
How it was run: as §1

NCAPD3 = target: T1, NCAPD3 (human, UniProt P42695 1-1498)
T1 sequence (looked up): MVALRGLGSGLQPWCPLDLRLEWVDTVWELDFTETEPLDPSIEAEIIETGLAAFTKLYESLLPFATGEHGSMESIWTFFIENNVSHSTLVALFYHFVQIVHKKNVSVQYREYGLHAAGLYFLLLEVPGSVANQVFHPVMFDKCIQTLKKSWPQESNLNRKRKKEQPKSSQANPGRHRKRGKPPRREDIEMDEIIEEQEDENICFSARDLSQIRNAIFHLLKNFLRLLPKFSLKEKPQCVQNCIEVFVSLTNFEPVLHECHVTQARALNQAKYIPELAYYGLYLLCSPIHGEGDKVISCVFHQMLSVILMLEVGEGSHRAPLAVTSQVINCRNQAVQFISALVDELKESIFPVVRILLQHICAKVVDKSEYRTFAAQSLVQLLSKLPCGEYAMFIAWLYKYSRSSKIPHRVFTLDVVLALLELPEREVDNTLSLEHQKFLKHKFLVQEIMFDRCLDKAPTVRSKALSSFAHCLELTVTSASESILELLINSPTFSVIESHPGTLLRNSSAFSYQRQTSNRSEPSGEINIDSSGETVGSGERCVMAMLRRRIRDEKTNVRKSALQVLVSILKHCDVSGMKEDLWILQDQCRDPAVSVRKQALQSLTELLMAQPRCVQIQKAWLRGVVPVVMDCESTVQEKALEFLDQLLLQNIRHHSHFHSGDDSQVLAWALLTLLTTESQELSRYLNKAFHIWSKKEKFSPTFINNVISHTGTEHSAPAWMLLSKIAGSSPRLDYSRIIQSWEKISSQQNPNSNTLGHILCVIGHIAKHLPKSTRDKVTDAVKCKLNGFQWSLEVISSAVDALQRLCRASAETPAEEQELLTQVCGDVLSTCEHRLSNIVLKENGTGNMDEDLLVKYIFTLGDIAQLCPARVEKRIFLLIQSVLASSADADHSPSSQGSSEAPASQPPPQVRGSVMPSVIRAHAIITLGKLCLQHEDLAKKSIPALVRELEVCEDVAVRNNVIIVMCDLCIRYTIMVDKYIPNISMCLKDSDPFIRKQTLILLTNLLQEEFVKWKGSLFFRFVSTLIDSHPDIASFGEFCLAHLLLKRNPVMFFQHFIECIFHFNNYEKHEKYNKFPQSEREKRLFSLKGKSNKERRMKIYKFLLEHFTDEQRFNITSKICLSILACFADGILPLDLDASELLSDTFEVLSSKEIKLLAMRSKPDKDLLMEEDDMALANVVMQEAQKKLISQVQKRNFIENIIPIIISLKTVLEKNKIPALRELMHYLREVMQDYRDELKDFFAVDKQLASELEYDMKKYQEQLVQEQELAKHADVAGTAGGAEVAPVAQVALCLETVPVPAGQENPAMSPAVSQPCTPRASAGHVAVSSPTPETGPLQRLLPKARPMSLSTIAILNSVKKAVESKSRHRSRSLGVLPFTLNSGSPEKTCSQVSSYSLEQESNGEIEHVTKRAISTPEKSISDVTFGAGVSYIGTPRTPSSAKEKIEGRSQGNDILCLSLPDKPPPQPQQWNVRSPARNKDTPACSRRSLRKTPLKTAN
How it was run: as §1

TTC27 = TTC27 (human, UniProt Q6P3X3 1-843)
How it was run: as §1

INTS1 = INTS1 (human, UniProt Q8N201 1-2190)
INTS1, sequence (Q8N201 whole entry): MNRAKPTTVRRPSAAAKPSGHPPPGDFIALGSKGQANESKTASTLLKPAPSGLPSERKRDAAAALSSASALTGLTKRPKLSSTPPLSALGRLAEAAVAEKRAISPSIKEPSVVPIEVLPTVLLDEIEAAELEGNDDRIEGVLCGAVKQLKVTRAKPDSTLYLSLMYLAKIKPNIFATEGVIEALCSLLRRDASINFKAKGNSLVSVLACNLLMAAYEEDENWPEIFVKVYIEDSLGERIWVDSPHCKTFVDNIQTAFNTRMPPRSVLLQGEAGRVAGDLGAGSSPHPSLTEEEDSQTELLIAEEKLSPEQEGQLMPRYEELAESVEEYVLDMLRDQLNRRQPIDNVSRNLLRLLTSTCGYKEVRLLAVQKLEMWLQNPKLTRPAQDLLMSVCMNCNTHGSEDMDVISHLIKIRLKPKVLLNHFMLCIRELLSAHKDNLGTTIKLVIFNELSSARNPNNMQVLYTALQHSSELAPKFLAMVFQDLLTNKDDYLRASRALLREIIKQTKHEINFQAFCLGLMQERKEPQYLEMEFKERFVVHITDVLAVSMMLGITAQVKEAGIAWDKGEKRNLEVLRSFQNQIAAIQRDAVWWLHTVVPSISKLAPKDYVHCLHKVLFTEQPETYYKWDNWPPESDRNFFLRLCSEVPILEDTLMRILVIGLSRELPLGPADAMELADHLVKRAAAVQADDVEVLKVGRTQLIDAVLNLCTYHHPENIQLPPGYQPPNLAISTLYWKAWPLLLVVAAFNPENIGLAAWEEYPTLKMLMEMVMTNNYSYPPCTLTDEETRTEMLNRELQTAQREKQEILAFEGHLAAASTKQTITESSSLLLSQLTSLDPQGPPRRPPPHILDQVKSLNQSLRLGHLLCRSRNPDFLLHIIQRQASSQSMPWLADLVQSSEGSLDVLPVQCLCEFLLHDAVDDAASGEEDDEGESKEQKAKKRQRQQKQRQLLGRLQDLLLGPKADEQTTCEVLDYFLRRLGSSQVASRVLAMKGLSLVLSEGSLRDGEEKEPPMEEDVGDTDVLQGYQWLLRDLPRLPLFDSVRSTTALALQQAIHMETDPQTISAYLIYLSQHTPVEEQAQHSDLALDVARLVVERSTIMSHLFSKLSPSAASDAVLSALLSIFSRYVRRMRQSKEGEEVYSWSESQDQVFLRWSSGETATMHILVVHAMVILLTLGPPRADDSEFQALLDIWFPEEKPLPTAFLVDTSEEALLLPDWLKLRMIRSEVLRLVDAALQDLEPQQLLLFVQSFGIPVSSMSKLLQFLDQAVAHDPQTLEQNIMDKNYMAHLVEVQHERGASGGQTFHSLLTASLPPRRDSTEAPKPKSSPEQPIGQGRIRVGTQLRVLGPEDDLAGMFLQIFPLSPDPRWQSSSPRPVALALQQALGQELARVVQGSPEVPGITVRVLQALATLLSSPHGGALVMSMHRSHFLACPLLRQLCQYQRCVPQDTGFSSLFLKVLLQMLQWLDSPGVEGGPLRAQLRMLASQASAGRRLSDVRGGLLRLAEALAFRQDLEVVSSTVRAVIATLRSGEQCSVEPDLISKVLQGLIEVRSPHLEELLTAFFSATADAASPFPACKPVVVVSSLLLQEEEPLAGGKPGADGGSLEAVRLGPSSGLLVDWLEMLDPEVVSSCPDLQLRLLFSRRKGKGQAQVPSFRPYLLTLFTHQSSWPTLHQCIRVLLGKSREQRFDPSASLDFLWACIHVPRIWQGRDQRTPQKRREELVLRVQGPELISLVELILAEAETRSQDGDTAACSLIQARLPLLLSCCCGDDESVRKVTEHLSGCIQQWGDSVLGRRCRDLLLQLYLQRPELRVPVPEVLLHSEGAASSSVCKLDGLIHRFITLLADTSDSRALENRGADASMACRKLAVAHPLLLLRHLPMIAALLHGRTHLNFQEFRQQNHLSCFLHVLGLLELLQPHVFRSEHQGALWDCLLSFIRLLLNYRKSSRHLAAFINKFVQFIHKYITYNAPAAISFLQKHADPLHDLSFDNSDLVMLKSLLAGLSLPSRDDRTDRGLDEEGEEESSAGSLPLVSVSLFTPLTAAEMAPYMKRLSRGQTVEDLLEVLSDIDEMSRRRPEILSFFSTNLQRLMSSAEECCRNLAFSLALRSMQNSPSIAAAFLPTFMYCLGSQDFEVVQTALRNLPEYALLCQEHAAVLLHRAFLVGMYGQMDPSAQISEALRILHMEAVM
How it was run: as §1

DIP2B, sequence (Q9P265 whole entry, the tested form may be a part): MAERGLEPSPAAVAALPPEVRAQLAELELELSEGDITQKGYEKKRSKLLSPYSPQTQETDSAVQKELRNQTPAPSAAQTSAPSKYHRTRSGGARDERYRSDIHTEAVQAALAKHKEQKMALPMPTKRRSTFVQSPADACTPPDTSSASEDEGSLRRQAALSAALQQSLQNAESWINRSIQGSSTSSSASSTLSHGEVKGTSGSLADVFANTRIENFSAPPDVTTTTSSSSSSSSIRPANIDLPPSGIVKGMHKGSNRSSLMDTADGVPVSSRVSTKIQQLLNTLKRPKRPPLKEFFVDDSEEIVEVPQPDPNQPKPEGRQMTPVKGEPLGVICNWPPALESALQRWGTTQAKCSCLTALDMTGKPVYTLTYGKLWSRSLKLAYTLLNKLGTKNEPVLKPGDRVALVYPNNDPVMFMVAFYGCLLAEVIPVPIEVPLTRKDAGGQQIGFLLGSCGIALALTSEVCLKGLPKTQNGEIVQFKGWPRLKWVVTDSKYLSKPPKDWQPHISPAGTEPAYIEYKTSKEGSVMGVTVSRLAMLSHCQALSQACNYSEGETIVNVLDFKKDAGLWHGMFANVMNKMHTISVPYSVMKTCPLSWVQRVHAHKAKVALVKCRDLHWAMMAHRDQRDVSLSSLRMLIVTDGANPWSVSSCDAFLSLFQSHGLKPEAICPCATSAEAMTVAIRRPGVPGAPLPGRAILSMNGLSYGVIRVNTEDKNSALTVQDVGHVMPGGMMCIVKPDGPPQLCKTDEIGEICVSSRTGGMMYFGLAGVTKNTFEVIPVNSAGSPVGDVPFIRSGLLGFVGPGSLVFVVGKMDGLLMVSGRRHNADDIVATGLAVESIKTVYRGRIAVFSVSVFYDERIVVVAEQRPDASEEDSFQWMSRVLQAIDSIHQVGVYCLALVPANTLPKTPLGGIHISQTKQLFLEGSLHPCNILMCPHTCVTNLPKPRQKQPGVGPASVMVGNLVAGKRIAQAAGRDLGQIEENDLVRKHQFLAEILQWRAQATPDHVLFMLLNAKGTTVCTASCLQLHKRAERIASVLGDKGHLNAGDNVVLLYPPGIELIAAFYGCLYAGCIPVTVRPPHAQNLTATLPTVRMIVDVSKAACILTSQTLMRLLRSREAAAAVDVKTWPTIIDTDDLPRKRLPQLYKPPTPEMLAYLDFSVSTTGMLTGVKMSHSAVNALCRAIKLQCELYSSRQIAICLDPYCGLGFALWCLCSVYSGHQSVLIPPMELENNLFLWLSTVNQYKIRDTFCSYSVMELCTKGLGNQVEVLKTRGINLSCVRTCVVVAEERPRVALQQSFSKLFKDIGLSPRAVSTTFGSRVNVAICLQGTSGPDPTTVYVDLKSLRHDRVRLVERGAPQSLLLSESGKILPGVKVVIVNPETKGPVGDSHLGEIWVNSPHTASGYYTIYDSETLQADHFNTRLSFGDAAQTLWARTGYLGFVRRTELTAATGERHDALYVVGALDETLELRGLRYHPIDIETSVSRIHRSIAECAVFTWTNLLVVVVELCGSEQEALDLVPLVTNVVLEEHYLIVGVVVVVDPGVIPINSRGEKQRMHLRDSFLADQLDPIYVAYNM

- binding result (DIP2B): binds
- binding result (RUSC2): binds
- binding result (NCAPD3): binds
- binding result (TTC27): binds
- binding result (INTS1): binds
B1: LZTR1-FLAG (other, human, UniProt Q8N653 1-840, looked up)
chain: MAGPGSTGGQIGAAALAGGARSKVAPSVDFDHSCSDSVEYLTLNFGPFETVHRWRRLPPCDEFVGARRSKHTVVAYKDAIYVFGGDNGKTMLNDLLRFDVKDCSWCRAFTTGTPPAPRYHHSAVVYGSSMFVFGGYTGDIYSNSNLKNKNDLFEYKFATGQWTEWKIEGRLPVARSAHGATVYSDKLWIFAGYDGNARLNDMWTIGLQDRELTCWEEVAQSGEIPPSCCNFPVAVCRDKMFVFSGQSGAKITNNLFQFEFKDKTWTRIPTEHLLRGSPPPPQRRYGHTMVAFDRHLYVFGGAADNTLPNELHCYDVDFQTWEVVQPSSDSEVGGAEVPERACASEEVPTLTYEERVGFKKSRDVFGLDFGTTSAKQPTQPASELPSGRLFHAAAVISDAMYIFGGTVDNNIRSGEMYRFQFSCYPKCTLHEDYGRLWESRQFCDVEFVLGEKEECVQGHVAIVTARSRWLRRKITQARERLAQKLEQEAAPVPREAPGVAAGGARPPLLHVAIREAEARPFEVLMQFLYTDKIKYPRKGHVEDVLLIMDVYKLALSFQLCRLEQLCRQYIEASVDLQNVLVVCESAARLQLSQLKEHCLNFVVKESHFNQVIMMKEFERLSSPLIVEIVRRKQQPPPRTPLDQPVDIGTSLIQDMKAYLEGAGAEFCDITLLLDGHPRPAHKAILAARSSYFEAMFRSFMPEDGQVNISIGEMVPSRQAFESMLRYIYYGEVNMPPEDSLYLFAAPYYYGFYNNRLQAYCKQNLEMNVTVQNVLQILEAADKTQALDMKRHCLHIIVHQFTKVSKLPTLRSLSQQLLLDIIDSLASHISDKQCAELGADI
notes: Expressed in HEK 293T, HeLa or U87 cells; used as cell lysate; also called LZTR1 wild type-FLAG; LZTR1 WT; not shown: FLAG tag at the C-terminus
